Data taken from patent US20070060537.

Columns and labels:
[1] = target: His6-UbcH13/Uev1a, Q13404
[2] = target: E2 Ubch5c from bacteria, P61077
E2 Ubch5c from bacteria, P61077, sequence (P61077 whole entry): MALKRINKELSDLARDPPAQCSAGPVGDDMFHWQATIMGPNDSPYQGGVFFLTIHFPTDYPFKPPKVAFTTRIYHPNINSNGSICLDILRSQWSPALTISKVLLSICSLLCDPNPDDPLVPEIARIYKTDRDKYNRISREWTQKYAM

His6-UbcH13/Uev1a, Q13404, sequence (chain, as listed by the source, chain 1 of 2): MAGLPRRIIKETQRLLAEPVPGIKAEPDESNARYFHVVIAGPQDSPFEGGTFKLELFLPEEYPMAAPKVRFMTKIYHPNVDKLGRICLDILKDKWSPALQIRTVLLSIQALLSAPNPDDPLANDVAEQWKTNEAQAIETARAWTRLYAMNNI
His6-UbcH13/Uev1a, Q13404, sequence (Q13404 other isoform, or with tags, fused parts or gaps, chain 2 of 2): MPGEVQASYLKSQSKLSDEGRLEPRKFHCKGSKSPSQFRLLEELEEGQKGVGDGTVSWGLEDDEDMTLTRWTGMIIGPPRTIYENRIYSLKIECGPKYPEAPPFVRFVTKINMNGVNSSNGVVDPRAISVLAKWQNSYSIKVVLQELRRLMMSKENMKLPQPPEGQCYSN

B1: GST-hPOSH1-139 (protein)
chain: MDESALLDLLECPVCLERLDASAKVLPCQHTFCKRCLLGIVGSRNELRCPECRTLVGSGVEELPSNILLVRLLDGIKQRPWKPGPGGGSGTNCTNALRSQSSTVANCSSKDLQSSQGGQQPRVQSWSPPVRGIPQLPCA
GST-UbcH5c, P61077
GST-UbcH5c, P61077, sequence (P61077 whole entry): as the sequence (P61077 whole entry) above
  self-ubiquitination of hPOSH (high molecular weight ubiquitin-biotin conjugates, streptavidin blot): conjugation of ubiquitin to hPOSH was supported by four E2s, UbCH13/Uevla, UBCH5a, UBCH5c and UBCH6
[1]
  self-ubiquitination of hPOSH (high molecular weight ubiquitin-biotin conjugates, streptavidin blot): conjugation of ubiquitin to hPOSH was supported by four E2s, UbCH13/Uevla, UBCH5a, UBCH5c and UBCH6
His-UbcH6, P51965
His-UbcH6, P51965, sequence (P51965 whole entry): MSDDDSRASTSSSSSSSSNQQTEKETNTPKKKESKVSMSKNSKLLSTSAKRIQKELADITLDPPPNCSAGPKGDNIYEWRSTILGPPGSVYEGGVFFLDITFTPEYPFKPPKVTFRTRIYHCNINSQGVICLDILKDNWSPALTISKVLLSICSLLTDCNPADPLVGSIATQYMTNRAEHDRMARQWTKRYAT
  self-ubiquitination of hPOSH (high molecular weight ubiquitin-biotin conjugates, streptavidin blot): conjugation of ubiquitin to hPOSH was supported by four E2s, UbCH13/Uevla, UBCH5a, UBCH5c and UBCH6
GST-UbcH5a, P51668
GST-UbcH5a, P51668, sequence (P51668 whole entry): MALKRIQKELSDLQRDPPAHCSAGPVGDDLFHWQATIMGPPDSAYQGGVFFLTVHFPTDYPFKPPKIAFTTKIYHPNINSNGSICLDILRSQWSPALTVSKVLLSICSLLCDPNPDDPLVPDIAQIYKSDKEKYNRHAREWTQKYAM
  self-ubiquitination of hPOSH (high molecular weight ubiquitin-biotin conjugates, streptavidin blot): conjugation of ubiquitin to hPOSH was supported by four E2s, UbCH13/Uevla, UBCH5a, UBCH5c and UBCH6

B2: POSH #178 (1-361) gst fusion (protein)
chain: MDESALLDLLECPVCLERLDASAKVLPCQHTFCKRCLLGIVGSRNELRCPECRTLVGSGVEELPSNILLVRLLDGIKQRPWKPGPGGGSGTNCTNALRSQSSTVANCSSKDLQSSQGGQQPRVQSWSPPVRGIPQLPCAKALYNYEGKEPGDLKFSKGDIIILRRQVDENWYHGEVNGIHGFFPTNFVQIIKPLPQPPPQCKALYDFEVKDKEADKDCLPFAKDDVLTVIRRVDENWAEGMLADKIGIFPISYVEFNSAAKQLIEWDKPPVPGVDAGECSSAAAQSSTAPKHSDTKKNTKKRHSFTSLTMANKSSQASQNRHSMEISPPVLISSSNPTAAARISELSGLSCSAPSQVHIST
[2]
  in-vitro self-ubiquitination of hPOSH (anti-ubiquitin immunoblot): Ub-hPOSHconjugates, detected as high molecular weight adducts only in reactions containing E1, E2 and ubiquitin

B3: POSH # 176 (1-269) gst fusion (protein)
chain: MDESALLDLLECPVCLERLDASAKVLPCQHTFCKRCLLGIVGSRNELRCPECRTLVGSGVEELPSNILLVRLLDGIKQRPWKPGPGGGSGTNCTNALRSQSSTVANCSSKDLQSSQGGQQPRVQSWSPPVRGIPQLPCAKALYNYEGKEPGDLKFSKGDIIILRRQVDENWYHGEVNGIHGFFPTNFVQIIKPLPQPPPQCKALYDFEVKDKEADKDCLPFAKDDVLTVIRRVDENWAEGMLADKIGIFPISYVEFNSAAKQLIEWDKP
[2]
  in-vitro self-ubiquitination of hPOSH (anti-ubiquitin immunoblot): Ub-hPOSHconjugates, detected as high molecular weight adducts only in reactions containing E1, E2 and ubiquitin
